For data set [1], the target named is T1, GroEL (E. coli, UniProt P0A6F5 1-548).
Another data set deals with GroEL (E. coli) (UniProt P0A6F5).
In data set [2] the target is P. falciparum cpn20 (P. falciparum). Description: AUC; sedimentation equilibrium, 12,000 rpm, 20°C, 20 mM Tris-HCl pH 7.4, 200 mM NaCl, read at 280 nm after 10, 12 and 14 hrs; with sedimentation velocity at 35,000 rpm, 0.5 mg/ml.
In data set [3] the target is T1, GroEL. Put plainly: cell-based or functional assay.
Data set [4] concerns the molecule itself. Description: AUC; sedimentation equilibrium, 12,000 rpm, 20°C, 20 mM Tris-HCl pH 7.4, 200 mM NaCl, read at 280 nm after 10, 12 and 14 hrs; with sedimentation velocity at 35,000 rpm, 0.5 mg/ml.

“GroES (from UniProt P0A6F9 1-97) (natural protein)”: the protomer ratio of co-chaperonin to GroEL required for half maximal refolding yield of urea-denatured MDH (10 µM GroEL, 0.16 to 20 µM co-chaperonin, 30 minutes) (co-chaperonin to GroEL protomer ratio) in the data set with GroEL [1] is 0.125.
For the molecule P. falciparum cpn20 (natural protein), the protomer ratio of co-chaperonin to GroEL required for half maximal refolding yield of urea-denatured MDH (10 µM GroEL, 0.16 to 20 µM co-chaperonin, 30 minutes) (co-chaperonin to GroEL protomer ratio) in the data set with GroEL (E. coli) stood at 0.125. In data set [2], this molecule came in with a stoichiometry N (subunits in the oligomer) of 4.

B1: A. thaliana cpn20 (natural protein, UniProt O65282 51-253, looked up)
chain: AASVVAPKYTSIKPLGDRVLVKIKEAEEKTLGGILLPSTAQSKPQGGEVVAVGEGRTIGKNKIDITVPTGAQIIYSKYAGTEVEFNDVKHLILKEDDIVGILETEDIKDLKPLNDRVFIKVAEAEEKTAGGLLLTETTKEKPSIGTVIAVGPGSLDEEGKITPLPVSTGSTVLYSKYAGNDFKGKDGSNYIALRASDVMAILS
notes: cpn20 (20 kDa double-domain co-chaperonin of the chloroplast) from A. thaliana, At5g20720; probably the mature protein without the transit peptide (predicted tetramer 90 kDa); also called At-cpn20; At-Cpn20; source: bacterial expression, purified as previously described [23]
Turning to B1, in the data set with GroEL [3], the “protomer ratio of co-chaperonin to GroEL required for half maximal refolding yield of urea-denatured MDH (10 µM GroEL, 0.16 to 20 µM co-chaperonin, 30 minutes)” value was ~0.125 co-chaperonin to GroEL protomer ratio. Besides, the stoichiometry N (commonly the number of molecules, sites or subunits per partner or assembly) in data set [4] was found to be 4 subunits in the oligomer.

For the origin of these results see publication PMC3542282, “P. falciparum cpn20 Is a Bona Fide Co-Chaperonin That Can Replace GroES in E. coli” (PLoS ONE, 2013).
